Assay results: publication PMC3903306

Legend:
[1] = target: IpaB^1.226 (Shigella flexneri); assay: cross-linking
IpgC (Shigella flexneri) = IpgC (Shigella flexneri) (UniProt P0A2U4); assay: ITC
[2] = target: IpaB^28.226 (Shigella flexneri); assay: cross-linking
[3] = target: FM-IpaB^C1.226 (Shigella flexneri); assay: fluorescence polarisation
[4] = target: FM-IpaB^C28.226 (Shigella flexneri); assay: fluorescence polarisation
[5] = target: FM-IpaB^N1.226 (Shigella flexneri); assay: fluorescence polarisation
[6] = target: FM-IpaB^N28.226 (Shigella flexneri); assay: fluorescence polarisation

Substance	stoichiometry N [1]	Kd (IpgC (Shigella flexneri))	dH (IpgC (Shigella flexneri))	stoichiometry N (IpgC (Shigella flexneri))	stoichiometry N [2]	Kd [3]	Kd [4]	Kd [5]	Kd [6]
IpaB^1.226 (domain or fragment)	2	208 nM	8.68 kcal/mol	1.03	–	–	–	–	–
IpaB^28.226 (domain or fragment)	–	2960 nM	3.55 kcal/mol	0.88	2	–	–	–	–
IpgC (from UniProt P0A2U4 1-155) (natural protein)	–	–	–	–	–	59.5 nM	501 nM	199 nM	411 nM
